B1: 3E1 scFv-Fc (Fc fusion)
chain: QVQLQQPGAEVVKPGASVKMSCKASGYTFTDYYIHWVKQTPGQGLEWIGAIYPDNGDTSYNQKFKVKATLTADKSSSTAYMQLSSLTSEDSAVYYCARAFTYWGQGTLVTVSAGGGGSGGGGSGGGGSDILITQSPASLSASVGETVTITCGASENIYGALNWYQRKQGKSPQLLIYGATNLADGMSSRFSGSGSGRQYSLKISSLHPDDVATYYCQNVLSTPYTFGGGTKLEIKESKYGPPCPPCPAPEAAGGPSVFLFPPKPKDTLMISRTPEVTCVVVDVSQEDPEVQFNWYVDGVEVHNAKTKPREEQFNSTYRVVSVLTVLHQDWLNGKEYKCKVSNKGLPSSIEKTISKAKGQPREPQVYTLPPSQEEMTKNQVSLTCLVKGFYPSDIAVEWESNGQPENNYKTTPPVLDSDGSFFLYSKLTVDKSRWQEGNVFSCSVMHEALHNHYTQKSLSLSLG
B2: 3H6 scFv-Fc (Fc fusion)
chain: QVQLQQSGAELVKPGASVKMSCKASGYTFSFYNIHWVRQTPGQGLEWIGLIYPDNGDTSYNQKFKAKATLTADKSSSTAYMQLSSLTSEDSAVYYCARGGFDYWGQGTTLTVSSGGGGSGGGGSGGGGSDIQMTQSPASLSASVGETVTITCRASENIYSYLAWYQQKQGKSPQLLVYNAKTLAEGVPSRFSGSGSGTQFSLKINSLQPEDFGSYYCQHHYGTPYTFGGGTKLEMKESKYGPPCPPCPAPEAAGGPSVFLFPPKPKDTLMISRTPEVTCVVVDVSQEDPEVQFNWYVDGVEVHNAKTKPREEQFNSTYRVVSVLTVLHQDWLNGKEYKCKVSNKGLPSSIEKTISKAKGQPREPQVYTLPPSQEEMTKNQVSLTCLVKGFYPSDIAVEWESNGQPENNYKTTPPVLDSDGSFFLYSKLTVDKSRWQEGNVFSCSVMHEALHNHYTQKSLSLSLG
B3: 3C7 scFv-Fc (Fc fusion)
chain: EIQLQQSGAELVKPGASVKMSCKASGYIFRNYYIHWVKRTPGQGLEWIGAIYPDNGDTSYNQRFKVKATLTADTSSSTAYMQLSSLTSEDSAVYYCARAFTYWGQGTTLTVSSGGGGSGGGGSGGGGSDIQMIQSPASLSASVGETVTITCGASENIYGALNWYQRKQGKSPQLLIYGATNLADGMSSRFSGSGSGRQYSLKISSLHPDDVATYYCQNVLSTPYTFGGGTKLEIKESKYGPPCPPCPAPEAAGGPSVFLFPPKPKDTLMISRTPEVTCVVVDVSQEDPEVQFNWYVDGVEVHNAKTKPREEQFNSTYRVVSVLTVLHQDWLNGKEYKCKVSNKGLPSSIEKTISKAKGQPREPQVYTLPPSQEEMTKNQVSLTCLVKGFYPSDIAVEWESNGQPENNYKTTPPVLDSDGSFFLYSKLTVDKSRWQEGNVFSCSVMHEALHNHYTQKSLSLSLG
B4: 3F5 scFv-Fc (Fc fusion)
chain: EIQLQQSGAELVKPGASVKMSCKASGYTFRYYNMHWVKRTPGQGLEWIGLIYPDNGDTSYNQKFKGKATLTADTSSSTAYMQLSSLTSEDSAVYYCARGGLDYWGQGTTLTVSSGGGGSGGGGSGGGGSDIVLTQSPASLSASVGETVTITCGASENIYGALNWYQRKQGKSPQLLIYGATNLADGMSSRFSGSGSGRQYSLKISSLHPDDVATYYCQNVLSTPYTFGGGTKLEIKESKYGPPCPPCPAPEAAGGPSVFLFPPKPKDTLMISRTPEVTCVVVDVSQEDPEVQFNWYVDGVEVHNAKTKPREEQFNSTYRVVSVLTVLHQDWLNGKEYKCKVSNKGLPSSIEKTISKAKGQPREPQVYTLPPSQEEMTKNQVSLTCLVKGFYPSDIAVEWESNGQPENNYKTTPPVLDSDGSFFLYSKLTVDKSRWQEGNVFSCSVMHEALHNHYTQKSLSLSLG
B5: 3C9 scFv-Fc (Fc fusion)
chain: EIQLQQSGAELVKPGASVKMSCKASGYIFRYYNMHWVKRTPGQGLEWIGLIYPDNGDTSYNQKFKGKATLTADTSSSTAYMQLSSLTSEDSAVYYCARGGLDYWGQGTTLTVSSGGGGSGGGGSGGGGSDIQMIQSPASLSASVGETVTITCGASENIYGALNWYQRKQGKSPQLLIYGATNLADGMSSRFSGSGSGRQYSLKISSLHPDDVATYYCQNVLSTPYTFGGGTKLEIKESKYGPPCPPCPAPEAAGGPSVFLFPPKPKDTLMISRTPEVTCVVVDVSQEDPEVQFNWYVDGVEVHNAKTKPREEQFNSTYRVVSVLTVLHQDWLNGKEYKCKVSNKGLPSSIEKTISKAKGQPREPQVYTLPPSQEEMTKNQVSLTCLVKGFYPSDIAVEWESNGQPENNYKTTPPVLDSDGSFFLYSKLTVDKSRWQEGNVFSCSVMHEALHNHYTQKSLSLSLG
B6: 3F10 scFv-Fc (Fc fusion)
chain: EVQLQQSGAELVKPGASVKMSCKASGYTFSFYNIHWVRQTPGQGLEWIGLIYPDNGDTSYNQKFKAKATLTADKSSSTAYMQLSSLTSEDSAVYYCARGGFDYWGQGTTLTVSSGGGGSGGGGSGGGGSDVLMTQSPASLSASVGETVTITCGASENIYGALNWYQRKQGKSPQLLIYGATNLADGMSSRFSGSGSGRQYSLKISSLHPDDVATYYCQNVLSTPYTFGGGTKLEIKESKYGPPCPPCPAPEAAGGPSVFLFPPKPKDTLMISRTPEVTCVVVDVSQEDPEVQFNWYVDGVEVHNAKTKPREEQFNSTYRVVSVLTVLHQDWLNGKEYKCKVSNKGLPSSIEKTISKAKGQPREPQVYTLPPSQEEMTKNQVSLTCLVKGFYPSDIAVEWESNGQPENNYKTTPPVLDSDGSFFLYSKLTVDKSRWQEGNVFSCSVMHEALHNHYTQKSLSLSLG
B7: 3H9 scFv-Fc (Fc fusion)
chain: EIQLQQSGAELVKPGASVKMSCKASGYTFSFYNMHWVKRTPGQGLEWIGLIYPDNGDTSYNQKFKGKATLTADTSSSTAYMQLSSLTSEDSAVYYCARGGLDYWGQGTTLTVSSGGGGSGGGGSGGGGSDIVLTQSPASLSVSVGETVTITCRASENIYSNLAWYQQKQGKSPQLLVYAATNLADGVPSRFSGSGSGTQYSLKINSLQSEDFGSYYCQHFWGTPYTFGGGTKLELKESKYGPPCPPCPAPEAAGGPSVFLFPPKPKDTLMISRTPEVTCVVVDVSQEDPEVQFNWYVDGVEVHNAKTKPREEQFNSTYRVVSVLTVLHQDWLNGKEYKCKVSNKGLPSSIEKTISKAKGQPREPQVYTLPPSQEEMTKNQVSLTCLVKGFYPSDIAVEWESNGQPENNYKTTPPVLDSDGSFFLYSKLTVDKSRWQEGNVFSCSVMHEALHNHYTQKSLSLSLG
B8: 3D6 scFv-Fc (Fc fusion)
chain: QVQLQQSGAELVKPGASVKMSCKASGYTFRYYNMHWVKRTPGQGLEWIGLIYPDNGDTSYNQKFKGKATLTADTSSSTAYMQLSSLTSEDSAVYYCARGGLDYWGQGTSLTVSSGGGGSGGGGSGGGGSDIQMTQSPASLSVSVGETVTITCRASENIYSNLAWYQQKQGKSPQLLVYNAKTLADGVPSRFSGSGSGTQYSLKINSLQPEDFGSYYCQHFWSTPFTFGSGTKLELKESKYGPPCPPCPAPEAAGGPSVFLFPPKPKDTLMISRTPEVTCVVVDVSQEDPEVQFNWYVDGVEVHNAKTKPREEQFNSTYRVVSVLTVLHQDWLNGKEYKCKVSNKGLPSSIEKTISKAKGQPREPQVYTLPPSQEEMTKNQVSLTCLVKGFYPSDIAVEWESNGQPENNYKTTPPVLDSDGSFFLYSKLTVDKSRWQEGNVFSCSVMHEALHNHYTQKSLSLSLG

Columns and labels:
[1] = target: recombinant mouse FGFR2b (mouse) (UniProt P21803); assay: ELISA, antibody 1ug/mL
FGFR1 (acro) = FGFR1 (acro) (UniProt P11362); assay: ELISA, antibody 10 µg/mL
[2] = target: recombinant mouse FGFR2b (mouse) (UniProt P21803); assay: BLI, antibody on AHC2 sensor

Sequence of recombinant mouse FGFR2b (mouse) (P21803 22-377): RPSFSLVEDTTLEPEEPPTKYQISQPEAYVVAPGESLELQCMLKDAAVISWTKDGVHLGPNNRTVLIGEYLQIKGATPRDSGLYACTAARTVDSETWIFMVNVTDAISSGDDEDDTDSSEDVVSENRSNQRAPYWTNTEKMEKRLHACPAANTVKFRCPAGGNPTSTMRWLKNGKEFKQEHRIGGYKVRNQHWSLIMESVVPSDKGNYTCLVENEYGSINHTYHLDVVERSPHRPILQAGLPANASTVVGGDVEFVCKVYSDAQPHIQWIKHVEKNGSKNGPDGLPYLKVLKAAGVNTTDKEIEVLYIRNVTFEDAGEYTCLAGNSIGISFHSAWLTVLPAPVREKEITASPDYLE
Sequence of FGFR1 (acro) (P11362 22-376): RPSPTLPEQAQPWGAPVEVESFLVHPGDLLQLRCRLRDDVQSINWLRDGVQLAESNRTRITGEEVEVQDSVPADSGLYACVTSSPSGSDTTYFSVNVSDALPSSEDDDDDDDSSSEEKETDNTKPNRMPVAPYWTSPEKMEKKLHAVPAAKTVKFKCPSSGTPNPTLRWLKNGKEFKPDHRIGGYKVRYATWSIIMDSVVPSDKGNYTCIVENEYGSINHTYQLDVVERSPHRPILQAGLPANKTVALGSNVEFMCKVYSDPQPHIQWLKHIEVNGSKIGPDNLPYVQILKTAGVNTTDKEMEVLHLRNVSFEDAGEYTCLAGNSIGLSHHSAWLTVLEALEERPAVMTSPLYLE

Row | Binder | OD (450 nm) value [1] | OD (450 nm) value (FGFR1 (acro)) | Kd [2] [nM] | koff [2] [s⁻¹] | kon [2] [M⁻¹ s⁻¹]
1 | B1 | 2.92 | 0.08 | 21.8 | 0.00126 | 57800
2 | B2 | 2.39 | 0.077 | 43.7 | 0.00156 | 35700
3 | B3 | 3.1 | 0.077 | 8.71 | 0.000365 | 41900
4 | B4 | 2.38 | 0.108 | 36.1 | 0.00162 | 44800
5 | B5 | 2.57 | 0.113 | 9.95 | 0.000483 | 48500
6 | B6 | 2.87 | 0.086 | 52.5 | 0.00217 | 41300
7 | B7 | 2.99 | 0.646 | 23.8 | 0.00129 | 54200
8 | B8 | 2.59 | 0.693 | 21.7 | 0.000593 | 27400

— patent publication EP4714976A1
